Assay: soluble on expression in E. coli; label from the status in PepcDB or PDB records

Sequence | soluble on expression in E. coli
MKLVVCSESDTAGQNIKDNLLTFADFEEKDVGEFKLYLSDEFYIAETKERLIYADHIDEKLAKYIDFEEILFASRHSSKDGRKIFTVHVSGNVGTADFGGKPYSLAKPSPQTMKNYVLALRERLDRKPEFEFTMEVTHHGPSEISKPSAFYEIGSTEEEWKDREAAEVVAEAMLDAIRAEKMDWNVAVGVGGTHYAPRQTEIMLTTTFTFGHNFAKYTFEHLTAEFLVKAVKLSEAEYIIIDEKSVNSAVKKIVNEAAEVAGVEVLKSKKVKKDFRLV | soluble
MKTPSLILMTIILCNLSIPINAQILTSRQQKEDFDTLYSLLHQVHPDLFVYQTQKEFEKKHDSIYCLLNKERNLSDFYFIVSPFVASVKDGHTNFTIPATQDRIDYLNNGGLTLPLRLKIVENKILVDFPLISCSIQENDEIICMNNINSQTILSQLYLLLGAEKGNAIKENQLTSYLSTLLWYKYNWGEKYDFTIKRGKKIWKESLNGISQADAFPVLKARLGKSLPQFVYTLSPDKQTATLQIMNLYQLPQLKQFCDSVFSVINREHVPNLVIDVRNNKGGSSAGVDMLLSYLSHDAYILYIKTDLKISSYSKRYNEQKHPETYEEIKNLPDGSLFAIRDSFVEGNRDKADIYKGSVTVLVNESTYSGASTFASAIKKSHAGKVLGETGCPTVYFGNYMSFTLPNSRLEYYISLNKFYE | not soluble
MSLVSEAHIYLQKTNAIQQSSADLISILAGSGGNRDLLLLRDHLLSIDMMKLLDKDLHLREHFSDRRRDLLSRLWSKDAPDERFQRYYLSRIEVTYDDYAQVLSITAQAYSPEMARAIAQMMVTEGEKYMNALDHKTAHDQVSYIEQQVSALGVRMVAARKAVLAYQDAHGLVSPGNAVESISAIASRLDAELSDLMTKRAALAGYLTPAAPDIVQLDSQIAAVKSQLQAERQRVAAKRGGGLNAVAEEQGRLEAEAALADDMYKTALVALETARVESTRKIKSVAVLQSANLPVYPLEPRRIYNILEGHHHHHH | not soluble
AMSKIICLTAGHSNTDPGAVNGSDREADLAQDMRNIVASILRNDYGLTVKTDGTGKGNMPLRDAVKLIRGSDVAIEFHTNAAANKTATGIEALSTPKNKRWCQVLGKAVAKKTGWKLRGEDGFKPDNAGQHSRLAYAQAGGIVFEPFFISNDTDLALFKTTKWGICRAIADAIAMELGAAKV | soluble
MLYDKSLEKDNCGFGLIAHIEGEPSHKVVRTAIHALARMQHRGAILADGKTGDGCGLLLQKPDRFFRIVAEERGWRLAKNYAVGMIFLNKDPELAAASRHIVEEELQQETLSIVGWRDVPTNEGVLGEIALSSLPRIEQIFVNAPAGWRPRDMERRLFIARRRIEKRLQDDKDFYVCSLSNLVNIYKGLCMPADLPRFYLDLADLRLESAICLFHQRFSTNTVPRWPLAQPFRYLAHNGEINTITGNRQWARARTYKFQTPLIPDLQSAAPFVNETGSDSSSLDNMLELLLAGGMDIIRAMRLLVPPAWQNNPDMDQDLRAFFDFNSMHMEPWDGPAGIVMSDGRFAACNLDRNGLRPARYVITKDKLITCASEVGIWDYQPDEVVEKGRVGPGELMVIDTRGGRILHSAETDDDLKSRHPYKEWMEKNVRRLVPFEELPDEEVGSRELDDDLLASYQKQFNYSAEELDSVIRVLGENGQEAVGSMGDDTPFAVLSSQPRIIYDYFRQQFAQVTNPPIDPLREAHVMSLATSIGREMNVFCEAEGQAHRLSFKSPILLYSDFKQLTTMKEEHYRADRLDITFDVTETTLNATVKALCDKAEQMVRNGTVLLVLSDRNIGKNRLPVPAPMAVGAVQTRLVEQSLRCDANIIVETGSARDPHHFAVLLGFGATAIYPYLAYETLGRLIDTQAIAKNYRTVMQNYRNGINKGLYKIMSKMGISTIASYRCSKLFEAVGLHDDVVNLCFQGVVSRIGGASFDDFQQDLLNLSKRAWLARKPISPGGLLKYVHGGEYHAYNPDVVRTLQQAVQSGEYSDYQEYAKLVNERPASTLRDLLAIHPDGEAVTIDEVEPASELFKRFDTAAMSIGALSPEAHEALAEAMNSLGGNSNSGEGGEDPARYGTNKVSRIKQVASGRFGVTPAYLVNADVIQIKVAQGAKPGEGGQLPGDKVTPYIAKLRYSVPGVTLISPPPHHDIYSIEDLAQLIFDLKQVNPKAMISVKLVSEPGVGTIATGVAKAYADLITIAGYDGGTGASPLSSVKYAGCPWELGLVETQQALVANGLRHKIRLQVDGGLKTGVDIIKAAILGAESFGFGTGPMVALGCKYLRICHLNNCATGVATQDDKLRKNHYHGLPFKVTNYFEFIAREVRELMASLGVTRLVDLIGRTDLLKELEGFTAKQQKLALSRLLETAEPHPGKALYCTENNPPFDNGVLNAQLLQQAKPFVDARQSKTFWFDIRNTDRSVGASLSGYIAQTHGDQGLASDPIKAHFSGTAGQSFGVWNAGGVELYLTGDANDYVGKGMAGGLIAIRPPVGSAFLSHKASIIGNTCLYGATGGRLYAAGRAGERFGVRNSGAITVVEGIGDNGCEYMTGGIVCVLGKTGVNFGAGMTGGFAYVLDEDGEFRKRVNPELVEVLDVDSLAIHEEHLRGLITEHVQHTGSQRGEEILSRWSSFSTQFALVKPKSSDVKALLGHRSRSAAELRVQAQ | not soluble
MTGTERKVFQKYYPPDFDPSKIPRAKGQKNRQFVQRVMTPFNMQCNTCHEYIYKGKKFNMKRETAEGETYLGLKLFRFYFRCPNCLAEITFKTDLENCDYQNEHGATRLFEAVKLYQDQQKQVDEQEAEDAKDPMKMLEKRTMQSRQEMEEMGNLEDLQESSRTKECIDTIGFLSSTDPHIAQAQRIKMMEDEDDRMARELMGITSEGRIERRIKDDEDNSDGADEDDKDIPGPSASVVPSTSSMLKPAIPKLGMDDSGNSRKRNEQRDRFAGIKLIKKAKPSEPSTSSTASSTSSAPPPLPSSAASSGLSLLADYGSGSDSD | not soluble
ILRTKAQFVAMNEASLMQINHEWLQGTQSKQVTSQGETWQIDKRAESTISPNVQRIEIQVSLFDTQQNKVEAGITNLVFFNYPQKENAS | not soluble
MGSDKIHHHHHHLKKQAVVIGAGLAGMSAAIRLAGDGYEVTMLEQNGNVGGKLNQRSGQGFTFDTGPSILTMPWVLEQLFTSVHRRLDDYLEIERIEPQWRTFFEDGTQLDVKGDLPGMLEEFKKVSDQADFVELFSYSKKMYDLCLDSFYKYSLEDLKDLKKYHTMSELLKMDPLNTVASGTKKHLNNKYLEQLFNYMVMYVGSNPYEAPAVFNQMIYVQMGLGIYYVKGGMYNIARAMKTVLDELRVTIHVNTPVARVVTEGKRAIGVETTDGTFYPADVVVSNLEVIPTYQHLISEKKGPKQAKKLNQSFVPSVSGLVLLLGVNREYKDLKHHNFFFSDDPEREFAQMFKDGVPPEDPTIYVGVSSKSDASQAPEGKDNLFVLTHVPPLTKQDGKTDWDAYREVVLDKLERMGLTDLRESIEFEYRFTPEDLKSLYGPNGGSIYGVAADRKKNGGFKIPSKSDLYEGLYFVGGSTHPGGGVPMVTLSGQLTADLIQKHEKVKA | not soluble
MKLLSSIEQACDICRLKKLKCSKEKPKCAKCLKNNWECRYSPKTKRSPLTRAHLTEVESRLERLEF | soluble
MTENEDLVAGLLLAAGGGRRLGGRPKALLEHRGRPLVEHVAGVLRAAGSTRVYVVLGAQAAAVRERAVLPGCILVDNPDWELGMGTSLRAGLEAMHGTGVRAALVSLVDQPGIGPAAVARVRAAYTSPSTLASAAYDGVRGHPVLFGAAHWAAVAASATGDRGARAYLKAHESAITLVECGDVAEAYDIDTVADLVHLELEHHHHHH | not soluble
MGSDKIHHHHHHMVDSLQKPELEELRPGIKAPAKETILTPRFYTTDFEAMAKMDLSPNEDELRAILEEFRADYNRKHFVRTPEFDGSAADMDPETKKVFVEFLEQSCTSEFSGFLLYKELSRRIKNRNPLLAECFELMARDEARHAGFLNKSMSDFDLQLDLGFLTANKKYTYFKPAYIFYATYLSEKIGYWRYITIFRHLEQHPEYRIYPIFKFFENWCQDENRHGDFFDALMKAQPSTVRGFVAKLWCRFFLLAVFATMYIRDVQRKEFYEALGLDAREYDRHVIAKTNETSARVFPVVLDVDHPKFYDRLETCIANNNQLAAIEATSAPKPVKVLRKLPYYLSNGLQLLKLYLVKPLESDVYQPAVR | not soluble
MNRYPGIPRNEWSAGWKRTACIVKAEDGSWGFGFTLHSGVTERIINDHLSKILIGRNCMSTEMLWDVMQQSTISYGTSGLSSFAISAVDNAIWDLKGKILDRPVYELIGGPQKDKIFCYASNTSFEYGTKNSIEWFLELGFKAVKLFLREGPESNLEGINRAEQLVASTREQVGKDVEIAVDAWMSLNNEYAVRLAEVLKPYRIKWLEDYLNPENLDGYQNLRNRIPWQTLATGEHWYSLYPFALAASKGIVDIFQPDLNWVGGITAGIKICHLAEAHGLSVIPHASTNYPYGQHLAFSMPSVPWAERSEGVSPPGVPLEEMVLLPGTPVIKDGYIIPSDAPGFGLEITEDWLRDRAV | soluble
MSLTIVAPMDEILERAHVVALPMRVKFRGIMVREAVLFDGPKGWGEFSPFVEYGVQEAAQWLRCGLEMAFQGPPPMIRDAVEVNATIPAVSPDQVPEILARYPGCTTVKVKVAEGDDAARVAMVREVLPDARIRVDANRGWTVDQAVAASKHLGELEYMEQPCASVAELAELRRRISVPIAADESIRRVSDPYEVARLHAADVAVVKAAPLGGPRNIVDIAKFYQQRGLSLTVASALDTGVGMNAGIAVAAAIDSNPAGLATQRLFVEDVTEPRTIVDGKMSVEMLAPDPARLAEFEVTGPRRDWWLDRVRGALECLHDFIPEGHHHHHH | soluble
MSLAHPPRLNDDKPVIWTVSVTRLFELFRDISLEFDHLANITPIQLGFEKAVTYIRKKLANERCDAIIAAGSNGAYLKSRLSVPVILIKPSGYDVLQELAKAGKLTSSIGVVTYQETIPALVAFQKTFNLRLDQRSYITEEDARGQINELKANGTEAVVGAGLITDLAEEAGMTGIFIYSAATVRQAFSDALDMTRMSLRHNTHDATRNALRTRYVLEGHHHHHH | soluble
MVLDNLGKALANTLKKIARASSVDEALIKELVRDIQRALIQADVNVRLVLQLTREIQRRALEEKPPAGISKKEHIIKIVYEELTKFLGTEAKPIEIKEKPTILLMVGIQGSGKTTTVAKLARYFQKRGYKVGVVCSDTWRPGAYHQLRQLLDRYHIEVFGNPQEKDAIKLAKEGVDYFKSKGVDIIIVDTAGRHKEDKALIEEMKQISNVIHPHEVILVIDGTIGQQAYNQALAFKEATPIGSIIVTKLDGSAKGGGALSAVAATGAPIKFIGTGEKIDDIEPFDPPRFVSRLLGLGDIQGLLEKFKELEKEVEIKEEDIERFLRGKFTLKDMYAQLEAMRKMGPLKQILRMIPGLGYSLPDDVISIGEERLKKFKVIMDSMTEEELLNPEIINYSRIKRIARGSGTSTKDVKELLDQYRQMKKLFKSMNKRQLSRLARRFGM | soluble
MGSDKIHHHHHHMANEATQELFQVLDNTAIILQNELEISYLEAVYETGENLFQKEVLQKEELSSEKQLKLQASYESIELENFSNEEIRKGLQLALLKGMKHGIQVNHQMTPDSIGFIVAYLLEKVIQKKKNVSILDPACGTANLLTTVINQLELKGDVDVHASGVDVDDLLISLALVGADLQRQKMTLLHQDGLANLLVDPVDVVISDLPVGYYPDDENAKTFELCREEGHSFAHFLFIEQGMRYTKPGGYLFFLVPDAMFGTSDFAKVDKFIKKNGHIEGIIKLPETLFKSEQARKSILILEKADVDVKPPKEVLLANLSSLTDPSVTAPILAEIENWFKSKQ | soluble
MGSDKIHHHHHHMIASKSKQLVYNGRFTTQKTTGVQRVARELIAALIKFQPQDPVTVLVPPRPGVAVSGAKTVEVGFYKGVVWEQLILPLFARRGRIVNLGNSASIFLGNQIIYMHDAAVFDTPAHFSRPFRVWYRIMFWILARTSVCVLTNSRFSRDRLAHHCGVSAEKIRVVPLGADHLDALEPDTSVLDKHALTPDRFVLAVSSMNPTKNFGRLIAAFRQIGDPSVDLVIVGMQNTTVFGKHDPVGAPEPNIKYVGYISDEQLKALYQNAACFLYPSIYEGFGIPPLEAMRYGCPALVGKSAALPEVCADAALYCDPYSQDDIARKLRSLLDSPELRAELKRKGIAHAEQYRWSRSAEMMKAIFETL | not soluble
